In article PMC9672406 (The Journal of Biological Chemistry, 2022):

Target: the molecule itself
Test: AUC

B1: MqnA from Streptomyces coelicolor (chorismate dehydratase), wild type (enzyme)
chain: DNSRTRPRVGHIQFLNCLPLYWGLARTGTLLDFELTKDTPEKLSEQLVRGDLDIGPVTLVEFLKNADDLVAFPDIAVGCDGPVMSCVIVSQVPLDRLDGARVALGSTSRTSVRLAQLLLSERFGVQPDYYTCPPDLSLMMQEADAAVLIGDAALRANMIDGPRYGLDVHDLGALWKEWTGLPFVFAVWAARRDYAEREPVITRKVHEAFLASRNLSLEEVEKVAEQAARWEAFDEDTLAKYFTTLDFRFGAPQLEAVTEFARRVGPTTGFPADVKVELLKP
stoichiometry N: 2
